US12338277

Experiments:
Test in all cases: cell-based or functional assay
[1] = target: HIV-1 Env of pseudovirus T250-4 (HIV-1)
[2] = target: HIV-1 envelope of pseudovirus CNE19 (HIV-1)
[3] = target: HIV-1 envelope of pseudovirus CAAN5342.A2 (HIV-1)
[4] = target: HIV-1 envelope glycoprotein of pseudovirus 3817.v2.c59 (clade CD) (HIV-1)
[5] = target: HIV-1 envelope glycoprotein of pseudovirus A07412m1.vrv12 (clade D) (HIV-1)
[6] = target: HIV-1 envelope glycoprotein of pseudovirus 62357_14_D3_4589 (clade B (T/F)) (HIV-1)
[7] = target: HIV-1 envelope glycoprotein of pseudovirus ZM233M.PB6 (clade C) (HIV-1)
[8] = target: HIV-1 envelope glycoprotein of pseudovirus WITO4160.33 (clade B) (HIV-1)
[9] = target: HIV-1 envelope glycoprotein of pseudovirus Ce1086_B2 (clade C (T/F)) (HIV-1)
[10] = target: HIV-1 envelope glycoprotein of pseudovirus 1054_07_TC4_1499 (clade B (T/F)) (HIV-1)
[11] = target: HIV-1 envelope glycoprotein of pseudovirus 211-9 (clade CRF02_AG) (HIV-1)
[12] = target: HIV-1 envelope glycoprotein of pseudovirus QH0692.42 (clade B) (HIV-1)
[13] = target: HIV-1 envelope glycoprotein of pseudovirus ZM135M.PL10a (clade C) (HIV-1)
[14] = target: HIV-1 envelope of pseudovirus ZM233M.PB6 (HIV-1)
[15] = target: HIV-1 envelope glycoprotein of pseudovirus PVO.4 (clade B) (HIV-1)
[16] = target: HIV-1 envelope glycoprotein of pseudovirus X1254_c3 (clade G) (HIV-1)
[17] = target: HIV-1 envelope glycoprotein of pseudovirus 6244_13_B5_4576 (clade B (T/F)) (HIV-1)
[18] = target: HIV-1 envelope glycoprotein of pseudovirus T251-18 (clade CRF02_AG) (HIV-1)
[19] = target: HIV-1 envelope glycoprotein of pseudovirus BJOX009000.02.4 (clade CRF01_AE) (HIV-1)
[20] = target: HIV-1 envelope glycoprotein of pseudovirus 263-8 (clade CRF02_AG) (HIV-1)

Chain of 10-1074 (antibody) (VH): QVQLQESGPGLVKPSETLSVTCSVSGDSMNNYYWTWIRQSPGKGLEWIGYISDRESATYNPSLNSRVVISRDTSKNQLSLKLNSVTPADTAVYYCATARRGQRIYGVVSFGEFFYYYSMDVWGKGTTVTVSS
Chain of 10-1074 (antibody) (V domain): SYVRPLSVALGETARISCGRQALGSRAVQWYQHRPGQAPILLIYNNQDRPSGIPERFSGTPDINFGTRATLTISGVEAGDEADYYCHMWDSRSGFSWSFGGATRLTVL
Chain of 10-996 (antibody) (VH): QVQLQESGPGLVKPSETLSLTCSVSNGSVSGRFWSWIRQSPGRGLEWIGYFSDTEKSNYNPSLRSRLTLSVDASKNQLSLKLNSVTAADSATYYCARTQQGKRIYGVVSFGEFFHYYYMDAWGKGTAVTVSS
Chain of 10-996 (antibody) (VL): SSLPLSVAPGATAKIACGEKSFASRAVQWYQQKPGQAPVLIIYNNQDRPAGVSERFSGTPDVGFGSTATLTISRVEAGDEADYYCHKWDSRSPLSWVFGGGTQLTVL

Substance | IC80 (TZM-bl neutralization) [1] | IC50 (TZM-bl neutralization) [2] | IC50 (TZM-bl neutralization) [3] | IC50 in the TZM-bl neutralization assay [4] | IC50 in the TZM-bl neutralization assay [5] | IC50 in the TZM-bl neutralization assay [6] | IC50 in the TZM-bl neutralization assay [7] | IC50 in the TZM-bl neutralization assay [8] | IC50 in the TZM-bl neutralization assay [9] | IC50 in the TZM-bl neutralization assay [10] | IC50 in the TZM-bl neutralization assay [11] | IC50 in the TZM-bl neutralization assay [12] | IC50 in the TZM-bl neutralization assay [13] | IC50 (TZM-bl neutralization) [14] | IC50 in the TZM-bl neutralization assay [15] | IC50 in the TZM-bl neutralization assay [16] | IC50 in the TZM-bl neutralization assay [17] | IC50 in the TZM-bl neutralization assay [18] | IC50 in the TZM-bl neutralization assay [19] | IC50 in the TZM-bl neutralization assay [20]
10-996 (antibody) | 0.005 µg/mL | 3.45 µg/mL | 0.013 µg/mL |  |  |  |  |  |  |  |  |  |  |  |  |  |  |  |  | 
10-1074 (antibody) | 0.005 µg/mL | 50 µg/mL | 0.007 µg/mL | 14.9 µg/mL | 0.048 µg/mL | > 50 µg/mL | 0.349 µg/mL | 2.11 µg/mL | > 50 µg/mL | 0.563 µg/mL | 0.425 µg/mL | 0.929 µg/mL | 0.367 µg/mL | 0.06 µg/mL | 0.36 µg/mL | 0.297 µg/mL | 0.922 µg/mL | 7.39 µg/mL | > 50 µg/mL | 6.53 µg/mL
PGT121 (antibody) |  |  |  | > 50 µg/mL | 0.406 µg/mL | 45.6 µg/mL | 8.98 µg/mL | 6.01 µg/mL | 0.006 µg/mL | 0.696 µg/mL | 8.84 µg/mL | 8.54 µg/mL | 5.88 µg/mL | 1.45 µg/mL | 0.945 µg/mL | 0.199 µg/mL | 1.88 µg/mL | > 50 µg/mL | 37.3 µg/mL | 24.6 µg/mL
